Results taken from the supplement of paper PMC10567573.
± gives the standard deviation.

Experiment: protein stability index of a GFP-peptide fusion (GPS, HEK-293T) (PSI 1-6); higher = more stable
[1] = treatment: DMSO, c terminus: a fixed tail appended
[2] = treatment: MLN4924 1 uM, 8 h, c terminus: a fixed tail appended
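Note: 24-mer peptide tiles fused after GFP, lentivirally expressed, FACS-sorted into six equal bins by GFP/DsRed ratio, decoded by Illumina sequencing, PSI is the read-weighted mean bin number.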

PGEGLLISWAFTDRPDLSLTVLPK [C2CD2L]
protein stability index [1]: 2.64 ± 0.48
protein stability index [2]: 2.37 ± 0.44

EKHPKKPEPQQKAPLVPPPPPPPP [SRPK2]
protein stability index [1]: 5.42 ± 0.22
protein stability index [2]: 5.47 ± 0.09

KPVVNVSYRPAYDQGGPVEILPFL [DUSP5]
protein stability index [1]: 2.62 ± 0.14
protein stability index [2]: 2.66 ± 0.39

YFMIQALNQKTSEKMKKRKMSNSF [RHOBTB3]
protein stability index [1]: 2.24 ± 0.08
protein stability index [2]: 2.37 ± 0.33

DRLLVERIFAQYMVPHNLETTERM [PDS5B]
protein stability index [1]: 2.29 ± 0.31
protein stability index [2]: 2.17 ± 0.086

SQGNFEGNFESLDLAEFAKKQPWW [FUNDC2]
protein stability index [1]: 3.63 ± 0.27
protein stability index [2]: 3.63 ± 0.46

AFASFTSGVVRIWDLRDQSVVRDL [TLE6]
protein stability index [1]: 2.36 ± 0.47
protein stability index [2]: 2.21 ± 0.35

SQVTATSGNGDFGDWSAFNQAPSG [CLINT1]
protein stability index [1]: 4.59 ± 0.068
protein stability index [2]: 4.36 ± 0.21

AVWLIFFMLGLGTLLPWNFFMTAT [SLC29A1]
protein stability index [1]: 3.09 ± 0.66
protein stability index [2]: 2.6 ± 0.12

LKFDAYFQEDVPMSTEEQYRIRQV [EFHC1]
protein stability index [1]: 3.44 ± 0.14
protein stability index [2]: 3.46 ± 0.28

QNNQAKELERLIDKAMKKDGLVGM [FIS1]
protein stability index [1]: 4.18 ± 0.19
protein stability index [2]: 4.3 ± 0.12

MTGRAMDPLPAAAVGAAAEAEADE [SNX8]
protein stability index [1]: 5.52 ± 0.3
protein stability index [2]: 5.78 ± 0.12

PECRQVLKTSRKDVKDKETTENEN [CHGB]
protein stability index [1]: 5.54 ± 0.3
protein stability index [2]: 5.45 ± 0.37

EEEPSHVTGREGFPTDAPYPTTLG [ZNF8]
protein stability index [1]: 5.17 ± 0.14
protein stability index [2]: 5.17 ± 0.14

LKRLYRAPIDWIEEYTTGMADCIL [ALG2]
protein stability index [1]: 2.26 ± 0.68
protein stability index [2]: 2.28 ± 0.69

VSPGPSRSFKEELLCAVCYDPFRD [TRIM35]
protein stability index [1]: 2.79 ± 0.21
protein stability index [2]: 2.91 ± 0.27

TDAFLDRPPTPLFIPAKTGKDVAT [RSPH3]
protein stability index [1]: 4.58 ± 0.18
protein stability index [2]: 4.6 ± 0.22

LPDCCHGSELRDFPGRPMGHLSKD [DLC1]
protein stability index [1]: 4.44 ± 0.29
protein stability index [2]: 4.32 ± 0.27

DCMSRELVSLTSRNPDQRKESLCI [FBXO34]
protein stability index [1]: 3.93 ± 0.57
protein stability index [2]: 4.11 ± 0.32

AFSHKSMRDRHVNMHLNLRPFDCP [ZBTB22]
protein stability index [1]: 2.4 ± 0.15
protein stability index [2]: 2.47 ± 0.19

RTYRYSNRYCGGPGPPITDCEMNS [DYRK1B]
protein stability index [1]: 2.67 ± 0.23
protein stability index [2]: 2.56 ± 0.11

VDICHMLVQFCRLGSPRSRGCLW [EHMT1]
protein stability index (treatment: DMSO, c terminus: native): 2.67 ± 0.14
protein stability index (treatment: MLN4924 1 uM, 8 h, c terminus: native): 2.71 ± 0.66

RYIIFKRNTLNQPCSGSVSLQPRR [GMCL1]
protein stability index [1]: 2.27 ± 0.22
protein stability index [2]: 2.36 ± 0.43

KLIQKKLLDKTCDQVMEFSWSALW [ZER1]
protein stability index [1]: 2.41 ± 0.41
protein stability index [2]: 2.35 ± 0.2

SFTLEEEEEGGEEEEEAAMYEEEM [FAM50A]
protein stability index [1]: 5.47 ± 0.43
protein stability index [2]: 5.36 ± 0.2

VLLKTADPRYELPSRKYISTKAIP [ZBED1]
protein stability index [1]: 2.19 ± 0.37
protein stability index [2]: 2.34 ± 0.62

DRPMFMLQCAMEENCLSASAAQTD [LOXL2]
protein stability index [1]: 2.38 ± 0.52
protein stability index [2]: 1.94 ± 0.19

LTFGPDSRHCPQLPPPCAALWCSG [ADAMTS4]
protein stability index [1]: 2.29 ± 0.36
protein stability index [2]: 2.46 ± 0.32

TQHVNNWMKHNVADSQITTIGNLV [PTPRD]
protein stability index [1]: 2.9 ± 0.44
protein stability index [2]: 3.12 ± 0.42

ERCLLNNSLWKKNKTICKERLQIL [NLN]
protein stability index [1]: 2.31 ± 0.26
protein stability index [2]: 2.7 ± 0.49

PRAVLKPRRVCVGGKRRRDDISVD [PPP2R2C]
protein stability index [1]: 4.02 ± 0.18
protein stability index [2]: 4.25 ± 0.39

DCARRILAREGVAAFYKGYVPNML [SLC25A25]
protein stability index [1]: 2.12 ± 0.11
protein stability index [2]: 2.11 ± 0.29

ADDLVLTLSNPQMSLEGTEKASWL [ELF3]
protein stability index [1]: 3.62 ± 0.29
protein stability index [2]: 3.85 ± 0.26

DHMRKKQHRKINPKNREYDRFYVI [ZNF277]
protein stability index [1]: 2.21 ± 0.29
protein stability index [2]: 2.03 ± 0.28

IYAFAGMTNHQLSTTEWNDETLYQ [CHIT1]
protein stability index [1]: 2.36 ± 0.26
protein stability index [2]: 2.61 ± 0.22

VPWNQVGMRDADYIAAFLHVLLPV [HDAC6]
protein stability index [2]: 2.07 ± 1.5

IEEGFNPVQASQLEEEFDSDSGLS [NFE2L1]
protein stability index [1]: 5.37 ± 0.25
protein stability index [2]: 5.44 ± 0.16

NCTLIISYQKPKEVVVAESELQKE [DPCD]
protein stability index [1]: 2.18 ± 0.19
protein stability index [2]: 2.49 ± 0.2

ALVSAHSEWQRKLEAAEALLTLRN [DMRTC1]
protein stability index [1]: 3.44 ± 0.24
protein stability index [2]: 3.57 ± 0.17

SSITEAVPSESEPPALQNNLLSPL [NFE2L1]
protein stability index [1]: 4.75 ± 0.12
protein stability index [2]: 4.75 ± 0.21

SDTIYSYVRPERLSPISHGNTIAL [TCF25]
protein stability index [1]: 2.37 ± 0.22
protein stability index [2]: 2.56 ± 0.31

DEEKQEYLNEYEAEKIEYNESMKA [SMARCE1]
protein stability index [1]: 5.5 ± 0.17
protein stability index [2]: 5.05 ± 0.36

SNITSETGFRTISSLEEIVEKQGD [TMEM192]
protein stability index [1]: 5.44 ± 0.19
protein stability index [2]: 5.35 ± 0.15

SGEVLNGAAVVRPPGHHAEQDAAC [HDAC6]
protein stability index [1]: 5.32 ± 0.31
protein stability index [2]: 5.13 ± 0.14

FSEIRETSAKVNWMPPPSRADSFK [TNXB]
protein stability index [1]: 3.58 ± 0.31
protein stability index [2]: 3.88 ± 0.37

QRPADVPEPGRAGYPAPRDEGVLR [HAGHL]
protein stability index [1]: 4.85 ± 0.32
protein stability index [2]: 4.84 ± 0.15

AKVYVGVKQEIAEMRIPALNAYMK [NCF4]
protein stability index [1]: 2.13 ± 0.2
protein stability index [2]: 2.32 ± 0.29

DKAMKKDGLVGMAIVGGMALGVAG [FIS1]
protein stability index [1]: 2.89 ± 0.16
protein stability index [2]: 2.67 ± 0.12

EASERFAAGYIQCMHEVHTFVSTC [HES6]
protein stability index [1]: 2.21 ± 0.23
protein stability index [2]: 2 ± 0.36

WLSSRAAAIKVNDSVPFHLGWNST [MYORG]
protein stability index [1]: 1.99 ± 0.23
protein stability index [2]: 2.19 ± 0.38

MIHRTRKQKYFYKGGLVWDENSSD [CLK3]
protein stability index [1]: 3.06 ± 0.22
protein stability index [2]: 3.06 ± 0.23

HQVPTTAGNKAALLDQIREGAQLK [WASL]
protein stability index [1]: 4.95 ± 0.18
protein stability index [2]: 4.86 ± 0.33

LDSNGAGEKSENNSSNSDIVHVEK [BCL2L13]
protein stability index [1]: 5.57 ± 0.22
protein stability index [2]: 5.6 ± 0.13

HSAVLRDLRSGTLYSLTLYGLRGP [TNXB]
protein stability index [1]: 2.98 ± 0.63
protein stability index [2]: 2.68 ± 0.38

GFWQLPPPATQNTFGNSTLALGPG [PLAGL1]
protein stability index [1]: 3.17 ± 0.15
protein stability index [2]: 3.29 ± 0.35

ALALANSDSVHIEDAEAVEQLREA [ESRRA]
protein stability index [1]: 5.18 ± 0.3
protein stability index [2]: 5.26 ± 0.28

ENAQKKRFNQVLKNLLHAEFLRVQ [VPS39]
protein stability index [1]: 2.73 ± 0.43
protein stability index [2]: 2.29 ± 0.39

KELEKRREESQHEIKDVLVWTNDQ [PPFIA4]
protein stability index [1]: 5.27 ± 0.17
protein stability index [2]: 5.25 ± 0.21

EPSRSASEADSEAGELRKPTQEEW [PPEF2]
protein stability index [1]: 5.68 ± 0.33
protein stability index [2]: 5.81 ± 0.16

KFTQDNLCRAQRERLASANLRVLV [TEKT4]
protein stability index [1]: 2.15 ± 0.57
protein stability index [2]: 2.23 ± 0.26

MAGCRGSLCCCCRWCCCCGERETR [CLCN6]
protein stability index [1]: 2.42 ± 0.28
protein stability index [2]: 2.98 ± 0.44

EAFCHANCSGPAPAAKPDPDGGRA [P3H4]
protein stability index [1]: 4.82 ± 0.15
protein stability index [2]: 4.79 ± 0.19

EILGIEPDREKGFHLDVEDYLSGV [TSN]
protein stability index [1]: 3.27 ± 0.22
protein stability index [2]: 3.45 ± 0.41

CMCTVGERLYVIGGNHFRGTSDYD [KLHL13]
protein stability index [1]: 1.95 ± 0.17
protein stability index [2]: 2.38 ± 0.23

LQLQKGSDTEAQCEVMQEIVDQVL [INTS3]
protein stability index [1]: 3.63 ± 0.35
protein stability index [2]: 3.93 ± 0.19

IRVLLAFIVLFLLWPFAWLQVAGL [LPCAT4]
protein stability index [1]: 2.6 ± 0.69
protein stability index [2]: 3.14 ± 0.44

MRYEEEGMSYLYASWMYQLQHGDQ [TEX19]
protein stability index [1]: 2.3 ± 0.29
protein stability index [2]: 2.13 ± 0.17

FETHESDINSVRYYPSGDAFASGS [GNB5]
protein stability index [1]: 3.9 ± 0.25
protein stability index [2]: 3.94 ± 0.16

SEIRCDLERQNQEYQVLLDVKARL [KRT36]
protein stability index [1]: 3.38 ± 0.19
protein stability index [2]: 3.34 ± 0.2

DDLETMPDDLLTTLDDTCDLFAPL [ATF4]
protein stability index [1]: 5.01 ± 0.088
protein stability index [2]: 5.08 ± 0.16

EYVHSKNLIYRDVKPENFLIGRPG [CSNK1G3]
protein stability index [1]: 2.79 ± 0.32
protein stability index [2]: 2.78 ± 0.32

RRGIGGIFFDDLDSPSKEEVFRFV [CPOX]
protein stability index [1]: 2.28 ± 0.2
protein stability index [2]: 2.64 ± 0.27

RMRYEGVVDIFQTVKMLRTQRPAM [PTPRD]
protein stability index [1]: 2.18 ± 0.18
protein stability index [2]: 2.38 ± 0.29

AARKKYNLLQDSSTSDSDLTCDSS [C18orf25]
protein stability index [1]: 4.96 ± 0.21
protein stability index [2]: 4.89 ± 0.23

NMPKDHPVSCCLGLLLESLVPFIV [DYNC2LI1]
protein stability index [1]: 2.53 ± 0.23
protein stability index [2]: 2.57 ± 0.5

LKYFSDFRPYFTIHDSEFKEYTTR [DENND6A]
protein stability index [1]: 2.19 ± 0.32
protein stability index [2]: 2.3 ± 0.2

LQTMLRQSAFLHLPLPEQIHKASA [INTS4]
protein stability index [1]: 2.56 ± 0.22
protein stability index [2]: 2.44 ± 0.15

LPGSDVSGRLMGSPPVPGPSAALT [FBXO28]
protein stability index [1]: 4.42 ± 0.16
protein stability index [2]: 4.6 ± 0.33

DEKEQLIIPQVPLFNILAKFNGIT [USP39]
protein stability index [1]: 2.54 ± 0.3
protein stability index [2]: 2.57 ± 0.31

CSLYENDCIFDKFECAWNGSDSVI [PPP2R2C]
protein stability index [1]: 2.21 ± 0.17
protein stability index [2]: 2.17 ± 0.15

EDPSQQFLQQSLERVYSLQHLDPQ [INTS4]
protein stability index [1]: 4.18 ± 0.17
protein stability index [2]: 4.42 ± 0.23

EIKSMKKRMSELCIDFNKNLNEDD
protein stability index [1]: 4.64 ± 0.6

NYEKEEEFLTNELSRKLMQLQHEK [CCDC6]
protein stability index [1]: 4.43 ± 0.15
protein stability index [2]: 4.55 ± 0.38

FMLGLGTLLPWNFFMTATQYFTNR [SLC29A1]
protein stability index [1]: 2.87 ± 0.55
protein stability index [2]: 3.13 ± 0.26

QSFGRLSLQPQQQQQRQRPPRPPP [N4BP2L1]
protein stability index [1]: 4.64 ± 0.2
protein stability index [2]: 4.6 ± 0.32

DKQRKANESKGTRESWDSAKKLPP [ELOA2]
protein stability index [1]: 5.11 ± 0.19
protein stability index [2]: 5.06 ± 0.19

SDPDCSMRPTLIDLLPTFRHTLQK [FBXO39]
protein stability index [1]: 3.33 ± 0.27
protein stability index [2]: 3.45 ± 0.28

LLKAGAEVNVLNDMRDTPLHRAAF [OSBPL1A]
protein stability index [1]: 3.12 ± 0.24
protein stability index [2]: 3 ± 0.17

PAPQVGTQIRTITEEIRDGKVISS [KRT36]
protein stability index [1]: 5.08 ± 0.2
protein stability index [2]: 5.17 ± 0.23
